The experiment concerns the target His-NPM1 (human, UniProt P06748 1-294). As to the kind of experiment: pull-down.

Here are results for two molecules from article PMC5079111 (Cell, 2016).

His-NPM1, sequence (P06748 whole entry): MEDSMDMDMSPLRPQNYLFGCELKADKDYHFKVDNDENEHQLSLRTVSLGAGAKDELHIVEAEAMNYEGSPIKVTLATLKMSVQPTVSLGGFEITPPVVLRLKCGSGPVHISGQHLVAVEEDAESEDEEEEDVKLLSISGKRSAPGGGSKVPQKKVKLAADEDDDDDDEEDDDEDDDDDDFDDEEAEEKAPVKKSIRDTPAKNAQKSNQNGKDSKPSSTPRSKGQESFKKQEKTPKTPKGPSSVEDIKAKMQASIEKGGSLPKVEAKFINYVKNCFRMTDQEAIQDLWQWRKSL

B1: PR20-FLAG peptide (peptide)
peptide: PRPRPRPRPRPRPRPRPRPRPRPRPRPRPRPRPRPRPRPR
B1: the binding result was “binds”.

B2: GR20-FLAG peptide (peptide)
peptide: GRGRGRGRGRGRGRGRGRGRGRGRGRGRGRGRGRGRGRGR
For B2, the binding result is listed as “binds”.
